Experiments:
[1] = target: HER2 extracellular domain (coated on magnetic beads) (UniProt P04626); experiment: Lindmo method, magnetic beads coated with HER2 extracellular domain (BSA beads as negative control), paired-label
[2] = target: Human epidermal growth factor receptor 2 (HER2) on BT474M1 human breast carcinoma cells (human) (UniProt P04626); experiment: saturation binding of radiolabeled VHH on BT474M1 cells at 4 C, non-specific binding with 100-fold excess trastuzumab

| immunoreactive fraction [1] | Kd [2] | Substance |
| --- | --- | --- |
| 81.3% | – | iso-[^211At]SAGMB-5F7 VHH |
| 81.8% | – | iso-[^131I]SGMIB-5F7 VHH |
| 83.5% | 4.5 nM | [^211At]SAGMB-5F7 VHH |
| 84.5% | – | [^131I]SGMIB-5F7 VHH |

From US20200188541A1
